Blank lines part the entries; values can stand above or below the substance they belong to.
Tests used:
[1] = target: 46w60 nucleosome (recombinant human histone octamer on Widom 601 DNA with 46-bp and 60-bp flanks), Cy5-labelled (human) (UniProt P0C0S8); test: MST; CHD4 titrated (1:2 serial dilution) into 25 nM Cy5-labelled 46w60 nucleosome; 50 mM HEPES pH 7.5, 50 mM NaCl, 3 mM MgCl2 dilution buffer, 100 ng/µL BSA, 0.5% glycerol; 10 min on ice; Monolith NT.115, 80% LED, 20% MST power; fit to a 1:1 binding isotherm
CHD4 WT (Homo sapiens) = test: MST; details: 3 mM Mg2+ in dilution buffer; CHD4: 50 mM HEPES pH 7.5, NaCl up to 50 mM and MgCl2 up to 3 mM (from dilution buffer), 100 ng/uL BSA, 0.5% glycerol, 25 nM Cy5 substrate; C1bC2a: 20 mM HEPES …
[2] = system: CHD4 C1bC2a (SANT-SLIDE) (Homo sapiens); test: MST; details: 120 mM NaCl, 1 mM TCEP, no Mg2+; CHD4: 50 mM HEPES pH 7.5, NaCl up to 50 mM and MgCl2 up to 3 mM (from dilution buffer), 100 ng/uL BSA, 0.5% glycerol, 25 nM Cy5 substrate; C1bC2a: 20 mM HEPES …
[3] = system: CHD4(1-1810) (Homo sapiens); test: MST; details: CHD4: 50 mM HEPES pH 7.5, NaCl up to 50 mM and MgCl2 up to 3 mM (from dilution buffer), 100 ng/uL BSA, 0.5% glycerol, 25 nM Cy5 substrate; C1bC2a: 20 mM HEPES …
[4] = system: CHD4-IDR2-del- (Homo sapiens); test: MST; details: 3 mM Mg2+ in dilution buffer; CHD4: 50 mM HEPES pH 7.5, NaCl up to 50 mM and MgCl2 up to 3 mM (from dilution buffer), 100 ng/uL BSA, 0.5% glycerol, 25 nM Cy5 substrate; C1bC2a: 20 mM HEPES …
[5] = system: CHD4(1-1230) (Homo sapiens); test: MST; details: CHD4: 50 mM HEPES pH 7.5, NaCl up to 50 mM and MgCl2 up to 3 mM (from dilution buffer), 100 ng/uL BSA, 0.5% glycerol, 25 nM Cy5 substrate; C1bC2a: 20 mM HEPES …
[6] = system: CHD4-IDR2-scram (Homo sapiens); test: MST; details: 3 mM Mg2+ in dilution buffer; CHD4: 50 mM HEPES pH 7.5, NaCl up to 50 mM and MgCl2 up to 3 mM (from dilution buffer), 100 ng/uL BSA, 0.5% glycerol, 25 nM Cy5 substrate; C1bC2a: 20 mM HEPES …
[7] = system: CHD4(1-1380) (Homo sapiens); test: MST; details: CHD4: 50 mM HEPES pH 7.5, NaCl up to 50 mM and MgCl2 up to 3 mM (from dilution buffer), 100 ng/uL BSA, 0.5% glycerol, 25 nM Cy5 substrate; C1bC2a: 20 mM HEPES …

Sequence of CHD4(1–1230) (Q14839 1-1230): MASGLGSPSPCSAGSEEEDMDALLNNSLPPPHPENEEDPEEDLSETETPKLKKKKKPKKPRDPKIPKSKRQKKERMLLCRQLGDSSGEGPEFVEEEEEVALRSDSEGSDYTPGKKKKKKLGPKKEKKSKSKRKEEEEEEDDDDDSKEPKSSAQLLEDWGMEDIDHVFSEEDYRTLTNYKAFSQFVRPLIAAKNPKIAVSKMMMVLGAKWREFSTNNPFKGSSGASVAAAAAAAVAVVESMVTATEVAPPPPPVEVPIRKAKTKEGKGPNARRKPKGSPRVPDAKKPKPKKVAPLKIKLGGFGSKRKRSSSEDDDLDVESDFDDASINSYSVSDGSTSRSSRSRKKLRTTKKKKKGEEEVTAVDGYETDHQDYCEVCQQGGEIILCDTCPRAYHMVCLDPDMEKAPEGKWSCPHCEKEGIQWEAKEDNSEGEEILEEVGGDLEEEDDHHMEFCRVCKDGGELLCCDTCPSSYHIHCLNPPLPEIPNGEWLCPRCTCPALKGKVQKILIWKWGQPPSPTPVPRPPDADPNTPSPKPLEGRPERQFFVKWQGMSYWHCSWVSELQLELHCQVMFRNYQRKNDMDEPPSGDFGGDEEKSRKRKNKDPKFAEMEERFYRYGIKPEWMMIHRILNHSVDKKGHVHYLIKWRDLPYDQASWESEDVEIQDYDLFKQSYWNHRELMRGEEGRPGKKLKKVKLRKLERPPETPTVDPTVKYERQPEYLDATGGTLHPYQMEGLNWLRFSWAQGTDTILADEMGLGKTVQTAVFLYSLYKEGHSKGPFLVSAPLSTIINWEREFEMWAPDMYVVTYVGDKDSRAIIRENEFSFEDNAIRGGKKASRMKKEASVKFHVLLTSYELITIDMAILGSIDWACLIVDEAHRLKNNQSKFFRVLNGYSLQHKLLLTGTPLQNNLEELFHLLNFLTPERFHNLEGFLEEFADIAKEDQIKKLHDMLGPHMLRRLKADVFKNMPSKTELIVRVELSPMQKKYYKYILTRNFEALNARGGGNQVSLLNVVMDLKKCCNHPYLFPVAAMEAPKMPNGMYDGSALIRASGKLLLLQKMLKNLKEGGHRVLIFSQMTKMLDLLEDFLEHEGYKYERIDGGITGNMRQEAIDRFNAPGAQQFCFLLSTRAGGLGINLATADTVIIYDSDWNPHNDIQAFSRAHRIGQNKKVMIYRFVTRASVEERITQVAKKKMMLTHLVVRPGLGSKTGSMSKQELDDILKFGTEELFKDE
Sequence of WT CHD4 (human chromodomain helicase DNA-binding protein 4, full length) (Q14839 whole entry): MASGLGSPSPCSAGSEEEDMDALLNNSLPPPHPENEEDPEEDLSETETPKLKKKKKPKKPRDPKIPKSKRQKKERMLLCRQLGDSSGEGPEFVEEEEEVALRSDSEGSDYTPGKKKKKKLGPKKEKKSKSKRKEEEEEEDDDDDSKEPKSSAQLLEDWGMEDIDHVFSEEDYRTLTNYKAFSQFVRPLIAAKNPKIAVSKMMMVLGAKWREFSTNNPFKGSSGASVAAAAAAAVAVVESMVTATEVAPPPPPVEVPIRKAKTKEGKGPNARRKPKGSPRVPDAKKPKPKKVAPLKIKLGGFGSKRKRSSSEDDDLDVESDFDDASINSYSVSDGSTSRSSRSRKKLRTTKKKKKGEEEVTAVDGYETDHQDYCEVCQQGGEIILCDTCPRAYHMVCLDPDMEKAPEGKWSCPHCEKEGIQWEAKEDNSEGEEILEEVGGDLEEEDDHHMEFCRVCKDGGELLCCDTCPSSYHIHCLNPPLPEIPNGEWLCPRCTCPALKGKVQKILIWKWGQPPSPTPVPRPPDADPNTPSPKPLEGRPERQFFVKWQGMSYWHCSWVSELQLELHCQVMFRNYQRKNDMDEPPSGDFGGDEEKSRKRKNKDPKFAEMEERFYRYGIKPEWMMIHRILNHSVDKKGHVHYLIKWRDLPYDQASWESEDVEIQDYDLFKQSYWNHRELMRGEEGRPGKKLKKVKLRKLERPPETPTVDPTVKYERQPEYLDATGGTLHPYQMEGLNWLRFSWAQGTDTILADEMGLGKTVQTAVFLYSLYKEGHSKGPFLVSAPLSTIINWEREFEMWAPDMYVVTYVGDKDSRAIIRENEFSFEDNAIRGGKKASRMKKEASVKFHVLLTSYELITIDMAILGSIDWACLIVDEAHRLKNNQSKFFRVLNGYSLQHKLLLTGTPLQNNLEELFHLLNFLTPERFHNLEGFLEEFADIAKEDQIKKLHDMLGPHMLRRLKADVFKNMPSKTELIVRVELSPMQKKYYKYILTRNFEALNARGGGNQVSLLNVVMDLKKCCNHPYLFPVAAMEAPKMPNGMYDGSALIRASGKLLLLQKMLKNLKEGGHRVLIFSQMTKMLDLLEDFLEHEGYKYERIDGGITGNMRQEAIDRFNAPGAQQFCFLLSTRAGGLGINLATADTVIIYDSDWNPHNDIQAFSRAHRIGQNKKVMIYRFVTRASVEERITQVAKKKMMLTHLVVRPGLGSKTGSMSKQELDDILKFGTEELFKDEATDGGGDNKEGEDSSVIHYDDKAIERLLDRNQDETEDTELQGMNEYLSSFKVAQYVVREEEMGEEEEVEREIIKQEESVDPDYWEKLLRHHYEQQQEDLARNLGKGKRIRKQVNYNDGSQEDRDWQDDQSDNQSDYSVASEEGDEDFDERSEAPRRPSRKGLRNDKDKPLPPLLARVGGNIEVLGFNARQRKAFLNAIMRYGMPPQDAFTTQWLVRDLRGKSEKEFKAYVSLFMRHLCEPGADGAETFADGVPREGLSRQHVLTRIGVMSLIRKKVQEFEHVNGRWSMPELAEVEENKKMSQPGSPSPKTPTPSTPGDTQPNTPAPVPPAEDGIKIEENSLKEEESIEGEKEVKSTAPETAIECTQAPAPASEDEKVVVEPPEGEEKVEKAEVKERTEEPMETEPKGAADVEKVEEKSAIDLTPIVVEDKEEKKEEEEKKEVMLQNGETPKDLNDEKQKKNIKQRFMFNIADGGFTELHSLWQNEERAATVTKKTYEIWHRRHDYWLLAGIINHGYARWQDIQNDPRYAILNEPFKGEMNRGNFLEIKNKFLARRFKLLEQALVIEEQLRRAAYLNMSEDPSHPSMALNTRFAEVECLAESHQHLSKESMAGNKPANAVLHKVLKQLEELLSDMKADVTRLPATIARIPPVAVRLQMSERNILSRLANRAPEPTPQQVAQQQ
Sequence of CHD4-IDR2-del+ (Q14839 whole entry, one chain of several): as the sequence (Q14839 whole entry) above
Sequence of CHD4-IDR2-del– (Q14839 whole entry, one chain of several): as the sequence (Q14839 whole entry) above
Sequence of CHD4(1–1540) (Q14839 1-1540): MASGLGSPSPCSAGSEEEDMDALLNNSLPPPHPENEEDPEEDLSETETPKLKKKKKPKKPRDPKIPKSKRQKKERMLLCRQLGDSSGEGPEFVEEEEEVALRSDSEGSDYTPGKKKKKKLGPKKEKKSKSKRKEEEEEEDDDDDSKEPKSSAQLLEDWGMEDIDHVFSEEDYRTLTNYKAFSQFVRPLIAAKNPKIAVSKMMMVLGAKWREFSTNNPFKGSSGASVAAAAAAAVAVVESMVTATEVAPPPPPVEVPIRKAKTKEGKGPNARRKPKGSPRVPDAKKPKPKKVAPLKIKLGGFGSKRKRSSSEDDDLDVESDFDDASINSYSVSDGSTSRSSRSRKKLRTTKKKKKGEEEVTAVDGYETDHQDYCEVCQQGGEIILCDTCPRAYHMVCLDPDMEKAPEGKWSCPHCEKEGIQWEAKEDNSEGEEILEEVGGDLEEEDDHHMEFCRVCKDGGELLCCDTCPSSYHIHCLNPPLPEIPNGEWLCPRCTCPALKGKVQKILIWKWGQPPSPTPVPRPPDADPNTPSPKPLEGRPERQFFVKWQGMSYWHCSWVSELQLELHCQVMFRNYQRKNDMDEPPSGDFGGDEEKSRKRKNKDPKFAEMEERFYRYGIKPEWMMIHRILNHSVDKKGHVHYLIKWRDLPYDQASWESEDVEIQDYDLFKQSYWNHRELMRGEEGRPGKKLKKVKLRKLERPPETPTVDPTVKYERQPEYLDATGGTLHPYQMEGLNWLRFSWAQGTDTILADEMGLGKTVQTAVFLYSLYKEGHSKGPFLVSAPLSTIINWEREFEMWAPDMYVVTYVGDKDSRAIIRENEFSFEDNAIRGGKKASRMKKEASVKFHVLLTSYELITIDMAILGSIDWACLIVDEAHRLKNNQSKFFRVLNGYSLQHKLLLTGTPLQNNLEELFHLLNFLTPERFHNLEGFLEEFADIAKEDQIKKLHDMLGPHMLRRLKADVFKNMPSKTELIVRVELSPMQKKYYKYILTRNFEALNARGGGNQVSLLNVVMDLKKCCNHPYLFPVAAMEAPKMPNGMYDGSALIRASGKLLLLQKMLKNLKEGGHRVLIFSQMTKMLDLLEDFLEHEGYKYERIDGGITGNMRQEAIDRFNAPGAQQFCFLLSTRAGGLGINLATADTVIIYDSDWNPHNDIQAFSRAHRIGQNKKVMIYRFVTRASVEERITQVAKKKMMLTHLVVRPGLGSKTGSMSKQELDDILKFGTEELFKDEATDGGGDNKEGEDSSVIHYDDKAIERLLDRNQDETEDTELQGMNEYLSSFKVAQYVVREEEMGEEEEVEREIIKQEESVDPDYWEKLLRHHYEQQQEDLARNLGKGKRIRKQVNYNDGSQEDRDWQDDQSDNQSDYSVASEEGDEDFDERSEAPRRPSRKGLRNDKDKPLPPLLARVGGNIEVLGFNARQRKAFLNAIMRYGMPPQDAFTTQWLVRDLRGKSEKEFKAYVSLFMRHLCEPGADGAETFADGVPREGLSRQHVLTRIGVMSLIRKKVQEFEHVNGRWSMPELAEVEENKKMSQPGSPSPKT

Substance: CHD4(1–1810) (from UniProt Q14839 1-1810) (domain or fragment)
fold decrease in affinity against WT CHD4 [1]: 3 fold

Substance: 46w60 DNA (naked)
Kd (CHD4 WT (Homo sapiens)): 350 nM
Kd [2]: 10000 nM

Substance: CHD4(1–1380) (from UniProt Q14839 1-1380) (domain or fragment)
fold decrease in substrate binding against WT CHD4 [1]: 10 fold

Substance: WT CHD4 (human chromodomain helicase DNA-binding protein 4, full length) (from UniProt Q14839 1-1912) (enzyme)
Kd [1]: 45 nM

Substance: 46w60 nucleosome
Kd [3]: 150 nM
Kd [4]: 20 nM
Kd [5]: 210 nM
Kd (CHD4 WT (Homo sapiens)): 45 nM
Kd [6]: 100 nM
Kd [7]: 430 nM

Substance: CHD4(1–1230) (from UniProt Q14839 1-1230) (domain or fragment)
fold decrease in affinity against WT CHD4 [1]: 5 fold
fold increase in binding against CHD4(1–1380) [1]: 2 fold

Other lines, results leading:

fold decrease in nucleosome binding against WT CHD4 [1]: 4 fold
Substance: CHD4(1–1540) (from UniProt Q14839 1-1540) (domain or fragment)

Kd [1]: 20 nM
Substance: CHD4-IDR2-del– (from UniProt Q14839 1-226; Q14839 363-1912) (enzyme)

fold decrease in affinity against WT CHD4 [1]: 5 fold
Substance: CHD4-IDR2-del+ (from UniProt Q14839 1-226; Q14839 363-1912) (enzyme)

fold decrease in substrate binding affinity against WT CHD4 [1]: 3 fold
Substance: CHD4(355–1912) (from UniProt Q14839 355-1912) (domain or fragment)
